The values below come from publication PMC10952558, “Domain shuffling of a highly mutable ligand‐binding fold drives adhesin generation across the bacterial kingdom” (Proteins, 2023).

Data set [1] addresses cellular fibronectin (human). Description: MST; RED-NHS labeled cFn at 50 nM mixed with 16 concentrations (92 pM-3 uM) of the unlabeled protein; 637 mM NaCl, 2.7 mM KCl, 10 mM Na2HPO4, 1.8 mM KH2PO4, pH 7.4; 22-23°C; Monolith NT.115, MST power 40%, excitation 20%; triplicate; single-site dose-response model.
Data set [2] deals with the molecule itself. In words: crystal structure; dimeric SEC fraction of C-terminally His-tagged CshB_NR2; sitting drop, 20°C, 0.1 M SPG buffer pH 5, 25% w/v PEG 1500; molecular replacement with 5L2D; 1.4 Å.
Data set [3] addresses cellular fibronectin (human). Description: MST; RED-NHS labeled cFn at 50 nM mixed with 16 concentrations (92 pM-3 uM) of the unlabeled protein; 637 mM NaCl, 2.7 mM KCl, 10 mM Na2HPO4, 1.8 mM KH2PO4, pH 7.4; 22-23°C; Monolith NT.115, MST power 40%, excitation 20%; triplicate; single-site dose-response model. The source holds these as a separate data set.

Like-named read-outs stand apart in the source and are kept apart here.

“CshB_NR2 (NR2 domain of CshB), N-terminally hexa-histidine-tagged variant (from UniProt A8AXC5 211-528) (domain or fragment)” showed a Kd in data set [1] of 530 nM.

B1: CshB_NR2 (NR2 domain of CshB), C-terminally hexa-histidine-tagged variant, dimeric form (domain or fragment)
chain: WLDFSDSASWKNLDQRGGLKVGTTFTKEISPGYVVTLTVKELKPFNSTEIYKKRVAGTATEGTYNPDAENGFLTSAPYYGKTPPPSVTGAAQNEWTTIRDQGFNTQKRKTQLVYPMNSTNWGVKFDIEATYLGKRVAPTVVMADGEDANPGEFAIFTTNGTGWEYMGEWKMKSPAKEAYTVITKKMLDDEDVKRRGLLILKDKSVDWYKYLSPDTVTGGLGSQVFGPNRSNERTVPVVMTRGASEVGFYVASSGQQAMMMGFLVVDVSDAPESYGEAFHTISTRDSVTNDPINQPYLGTTPADIDVESSNDWVLDDKK
notes: CshB, Streptococcus gordonii DL1, NR2 domain, residues 211-528 of the full-length CshB polypeptide; amplified from chromosomal DNA, in pOPINE; Used for crystallization; Only the dimeric SEC fraction crystallised
As for B1, the “stoichiometry N” value in data set [2] worked out at 2.

B2: CshA_NR2 (NR2 domain of cell surface hydrophobicity protein A), wild type (domain or fragment)
chain: WVDFSDTASMKNLDPQGGFKVGTVFKKEISPGYVVTLTVTELKPFNSTEIYKKRVEGTPTANTYDPNAINSYLKGYKDYGKTPPSVTGRPQNKFSTIGGQGFDTQGRKTQIILPDDAVNWGIKFKVEATYRGNPVKPSVVMADGEDANPAEYGIFTTNGEGWEYVGEWMKGPRAKGPYTVMTEDMVKAFDKTRKDGLLILKDKSVDWSKYLSPDTVTGGLGSQVFGPIISASKAVPVVMTRGASEVGFYVATGGQQALMMGFLVVDSSDAPASYGEAYHTIGTRDSIANTPINQPYLGSTAADIDADSESDWTADDRE
Turning to B2, the Kd in data set [3] was 302 nM.
